Experimental data taken from article PMC3688503 (2013).

B1: wild-type MTM1-B10 fusion protein [human] / wild-type MTMR12-GFP protein [human] (parent complex)
chain 1: MASASTSKYNSHSLENESIKRTSRDGVNRDLTEAVPRLPGETLITDKEVIYICPFNGPIKGRVYITNYRLYLRSLETDSSLILDVPLGVISRIEKMGGATSRGENSYGLDITCKDMRNLRFALKQEGHSRRDMFEILTRYAFPLAHSLPLFAFLNEEKFNVDGWTVYNPVEEYRRQGLPNHHWRITFINKCYELCDTYPALLVVPYRASDDDLRRVATFRSRNRIPVLSWIHPENKTVIVRCSQPLVGMSGKRNKDDEKYLDVIRETNKQISKLTIYDARPSVNAVANKATGGGYESDDAYHNAELFFLDIHNIHVMRESLKKVKDIVYPNVEESHWLSSLESTHWLEHIKLVLTGAIQVADKVSSGKSSVLVHCSDGWDRTAQLTSLAMLMLDSFYRSIEGFEILVQKEWISFGHKFASRIGHGDKNHTDADRSPIFLQFIDCVWQMSKQFPTAFEFNEQFLIIILDHLYSCRFGTFLFNCESARERQKVTERTVSLWSLINSNKEKFKNPFYTKEINRVLYPVASMRHLELWVNYYIRWNPRIKQQQPNPVEQRYMELLALRDEYIKRLEELQLANSAKLSDPPTSPSSPSQMMPHVQTHF
chain 2: MLGKGVVGGGGGTKAPKPSFVSYVRPEEIHTNEKEVTEKEVTLHLLPGEQLLCEASTVLKYVQEDSCQHGVYGRLVCTDFKIAFLGDDESALDNDETQFKNKVIGENDITLHCVDQIYGVFDEKKKTLFGQLKKYPEKLIIHCKDLRVFQFCLRYTKEEEVKRIVSGIIHHTQAPKLLKRLFLFSYATAAQNNTVTDPKNHTVMFDTLKDWCWELERTKGNMKYKAVSVNEGYKVCERLPAYFVVPTPLPEENVQRFQGHGIPIWCWSCHNGSALLKMSALPKEQDDGILQIQKSFLDGIYKTIHRPPYEIVKTEDLSSNFLSLQEIQTAYSKFKQLFLIDNSTEFWDTDIKWFSLLESSSWLDIIRRCLKKAIEITECMEAQNMNVLLLEENASDLCCLISSLVQLMMDPHCRTRIGFQSLIQKEWVMGGHCFLDRCNHLRQNDKEEVPVFLLFLDCVWQLVHQHPPAFEFTETYLTVLSDSLYIPIFSTFFFNSPHQKDTNMGREGQDTQSKPLNLLTVWDWSVQFEPKAQTLLKNPLYVEKPKLDKGQRKGMRFKHQRQLSLPLTQSKSSPKRGFFREETDHLIKNLLGKRISKLINSSDELQDNFREFYDSWHSKSTDYHGLLLPHIEGPEIKVWAQRYLRWIPEAQILGGGQVATLSKLLEMMEEVQSLQEKIDERHHSQQAPQAEAPCLLRNSARLSSLFPFALLQRHSSKPVLPTSGWKALGDEDDLAKREDEFVDLGDV

Variants of: B1
Test: co-immunoprecipitation (anti-B10 IP, western blot quantification); overexpressed in Cos1 cells; IP with anti-B10 tag antibody; parent: 1; read off a plot

Variant	response [AU]
chain 1 C375S	~0.92
chain 1 R69C	~0.05
chain 1 R184G	~0.05
chain 1 P205L	~0.07

More lines, now with the values ahead:

response [AU]	Variant
~0.05	chain 1 V49F
~0.92	chain 1 R421Q
~1	chain 1 R241C
